Test: soluble on expression in E. coli; label from the status in PepcDB or PDB records

Sequence | soluble on expression in E. coli
MADLFDEFIEPGVKNEIMDVEEAPENPMEKLDSAKKRQAREDMTNLLANMHNDVGVGNFDEATSKRARVEEEEEVEEARMENIIVHTIRTDNENCTHEVAIPPNAEFAELRENSGTEPAKYYPFQLDAFQKQAILCIDNNQSVLVSAHTSAGKTVVATYAIAKCLREKQRVIYTSPIKALSNQKYRELEEEFKDVGLMTGDVTLNPDASCLVMTTEILRSMLYRGSEIMKEVGWVVYDEIHYMRDKERGVVWEETIILMSKNIKQAFLSATIPNARQFAQWVASIKQQPVNVVYTDYRPTPLQHWIYPVGGEGMYEVVNVKGEFREDKFRDAMSGLATAGDSAGSFNKRRTGGGTQGDSNVLKIIRSVASNDGLNCIVFSFSRKECESYAISLKDMDFNKDHEKGMVKSVYESAIAQLSPEDQKLPQILNILPLLRRGIGVHHSGLMPILKETIEILFGEGLVKVLFATETFSMGLNMPARTVVFTSARKFDGSDNRYITSGEYIQMAGRAGRRGKDDRGTVILMVDSAMSADDAKQIIKGATDPLNSQFRLTYNMVLNLMRVEGMAVSWIINNSFHQFQSYAKIPEIDKKCVQVERKIASFNFPWENEMRTLVDLQDQLEATRQRIIQIQREPKYIVGFLHAGRLFKVKSGDRDFKWGILNQFKKEQNPDDRNDQIYLCDMMIAINTEGRFDPTNPATLVPGFDLPKRRWIRVPMTIDRITAISAVRLKVPADIDKPDGQMRLDGMMAAATKRFGNQIPLLDPIQDMEIKTVEMKELIAREKSLEGRLETHSMTKRDNMKDLKKQFEQKQDAVKELNALKAERKSVQSTLHLEELNNRKRVLRRLGYLGNDDALVLKGSVACELSASDELILTEMLLKGIFNTLDVAQTAALLSCFVFQDKCAAPKLATELQTCLSELHEQARNVAKVSNECKMEVMEDKYVSSFNPGLMDVVYQWVNGATFSEIVKTTDVFEGSIIRTLRRLEEVLREMINAAKALANKELEQKFEDARKNLKRDIVFAASLYL | not soluble
MGHHHHHHSHMTVHIKVYSDYVCPFCFVGKAAFEEAIKGKDVEVEWMPFELRPSPSPQLDPVNDPSKQYMWQTSIQPMAEKLGVEINFPNVSPHPYTDLAFEGFHFAKEYNKGHEYNTRVFQAFFQEDQNIGDIDILTKLAEEVGLDGASFKSALETRTYQDVQRQALKHAYEEADITAVPTFIIGDTVIPGAAGKDVFEKAISDEQKKK | not soluble
MSSLPETLMNRLHDHERLTQNEGEALYDLDLFTLGREADRRRVKKHGKKVFFNSNRHINPTNICQDICKFCAFSSHRKNPNPYAMSIDEILEIAKESTALGARELHVVSAHNPNYGYQWYGEMFKTIKEALPHIHLKAMTAAEVDFLSRRFEKPYEQVLEDMLLWGVDSMPGGGAEIFDEEVRARLCGGKVSSGRWLEIHGYWHSLGKQSNATMLFGHIENRTHRIDHMLRLRELQDRYGGFNAFIPLLYQKENNFLKVERFPTGQEILKTLAISRILLDNIPHIKAYWATLGLNLAMVAQEFGADDLDGTIQKESIQSAAGSGSGHGVSKEELIFQIKDAGFIPVERDSLYNEIQIYA | not soluble
GSDKIHHHHHHMLTMKDIIRDGHPTLRQKAAELELPLTKEEKETLIAMREFLVNSQDEEIAKRYGLRSGVGLAAPQINISKRMIAVLIPDDGSGKSYDYMLVNPKIVSHSVQEAYLPTGEGCLSVDDNVAGLVHRHNRITIKAKDIEGNDIQLRLKGYPAIVFQHEIDHLNGVMFYDHIDKNHPLQPHTDAVEV | soluble
MHVAIIGGGISGIAAAFYLAQQKVSIDIFESENQIGGRAGSDFLQERRVDFGGKNIGRNYLLFREFARAYGDPAFEYFGINTSQLINGRIVSISREGSAWLNLLKIIRLCGLRKGITRLYPHIQAILNDRSQGVLCSDYFRALSENFDHLTLDRYLNQRCIDRVIRPITIRMNGAEPEECYPGNFGSNLALALDSFEQLTLGMYNLLDTFIASHRQESSFRILTGHRVTSIAKDQDKFRINYLNGAVSGTGSYDRIISALPAYSLAELLQDELPEASRLLNKISYFPVSIAIVKYRDEVFPQNRRAMVFDRNSPLSNAGAYGLNDLDIVRYTFSGKASRAAISEHSTPEEVISLGEKTASPYFSIKDNPKEAFVFRYFPKGLCAYSPKHHLLLEEIDRLVNRLSGFGTTGDYRRGASIEACFRAAKECIEKVVGDGSLEHHHHHH | soluble
MGNRLKAARSPYLLAHAEDPVDWYPFGEEAFRKAQAEDKPIFLSVGYASCHWCHVMHRESFQDEEVARLLNAHFVPVKVDREERPDVDAAYMRALVSLTGQGGWPMSLFLTPEGKPFFGGTYFPKEDRMGLPGFKRVLVAVAEAWAGKREAILEEAERLTRALWKSLSPPPGPLPEGAEEEALDHLERAFDPEWGGFLPAPKFPQGPLLLYLLARAWEGEERAARLLRPTLRAMALGGVYDQVGGGFHRYSVDRFWRLPHFEKMLYDNALLARVYLGAYKLFGEDLFLRVARETLDWLLSMQRREGGFHTALDAESEGEEGRYYTWTEAELREALGEDFPLARRYFALGEDLGERSVLTAWGEAEARKALGEGFFAWREGVRAKLQGARRRRMPPALDDKVLADWSALAVRALAEAGRLFGEERYLEAAKRGARFLLAHMYREGLLRHTWRGSLGEEAYLSDQAFAALAFLELYAATGEWPYLDWAQRLAEAGWRLFREGPSLPLPAKEVEEGALPSGESALAEALVRLGAVFGGDYRERAEEVLAEKARWLARYPHALPGALLAKALWERGTELALPLPSPLLEAARGAFLPLTQLVLGPAGALPALEGREAGKAYVCRRGVCLLPVDRWEEVEARVRGDD | soluble
MNSAGLEQCGMIMTRKNYYITTDGLLKRNENTLYFINKDLKRPIPINKIYSIYSYGALTISSQALNLLSKEGIPIHFFNRYGFYSGSFYPRETLLSGDVIIKQAEHVIDHDKRIELARSFVRGAALNMRRVLSYYGIENGISDTLMDLDSSNSVTDVMNVEGRIRSDYYNAIDSILPEGFRIGKRTRRPPENMTNAMISFGNSLLYSTVITELYNTQLNPTISYLHEPFERRYSLALDLSEIFKPTLIDRMIISLIKKKAIKAEDFEHGMNHCLLNNSGKRKFLAEYDRRLGKTVKHRELGRKVSYRRLIRLEAYKLIKHLIGQKSYEPFVMWW | not soluble
MTNDKMLARIAALLRQAEGTDNPHEADAFMSTAQRLATAASIDLAVARSHAGNRSPAQAPTQRTITIGAAGTRGLRTYVQLFVLIAAANDVRCDVASNSTFVYAYGFAEDIDTSHALYASLVVQMVRASDAYLASGAHRPTPTITARLNFQLAFGARVGQRLADAREQTRQEATKDRDRPPGTAIALRDKDIELHEYYRRSSKARGAWRASRATAGYSSAARRAGDRAGRQARLGNNPELPGARAALGR | soluble
MGSDKIHHHHHHMSNEQLADLTQPQRDRLAFVELRVRFIGEIRRQDLVTRFGIQSAAASRDLALYKELAPGNIDYDSKGKSYVLGPDFRPVFDFPPERVLSWLTQGFGDGEPMRLKAWVASESPSRLTHPDLDVLASVTRAIHQECPLGIEYHSISSGRTEREIVPFALIDNGLRWHVRAFDRKSQEFRDFVITRIKRPVLIRDAEVQSHERSDQDIQWTRIVELEMVPHPDQPRPEITEMDYGMVRGSLRMKLRAATAGYILRQWSVDCSPDHSLRGYEFRLWLKDHLALYGVKNAVLAPGYRSPDQNKGEQ | not soluble
MPMSTDVQGRALAVLNRVAQADWPDRFNLRKPFEKLLYSGSRTGFRLASERSAKQAKGPRKADPDGLFDLSFSDDQQMLVDMLEGFALEVLRPLAHDADAEASLPAELLNQALELGLTHYGVGEVHGGMAGERTTVTTALIAEALAKGDLTLAAALLVPLSAANCIRRWGSPSQQAQWLPAFVSEEGAPLTAIAVNEPSLLFDPQKLATRARRKGSHYLLSGEKCLVLRGLEASRLIVAAKTDEGPALFLVEASAKGVERRAEPAMGLKAGGTARLRLKSVKVPADNRLAAEHFDYRAFLDHASLAWCALALGTGQAALDYVIAYCNEREAFGEPISHRQGVAFMVADIAIELDAMRLMVWRACALAERGQPFQREAYLARLLCAEKAMKIGTDAVQLLGGHGFT | not soluble
MKQFNLIATSGQGIEALVAKELNNLGYQTRTENGFVRFSGNQRDILKTNIWLRTADRIKILVGEFHTLRFDDLFESVKALPWSELINWDDQFPVMEAHSRDSQLFSVPDIQRITKKAIVEALRSQTGHEDLPETGKHVGIDIRIDKNNVRIMIDTSGESLFKRGYRTEHGGAPLKENFAAALVLLTNWFTDNPFVDPVCGSGTIPIEAALIGKNIAPGINRTFEIESWAWFDKKLSQDVREEADILAKYDQPLDISGYDIDGNMIRISKENAKKAGLYNDIAFKQLAVKDWQTDKINGILVANPPYGQRLGEIEDARQIYQQMGSIYNQMSTWSKYILTSDEKFEQFYGKKATKKRKLYNGPIRTDLYQYWGKKVR | not soluble
MSLDQFDCKVSATGGWDCSPLQNANANLPPRPAHTATSVSTAAAGSSVSGSGGETVEAEPTQRLVTESGGRALKSRSADYSHLDWIPREKLTAAQLAEIGPYCGGSYIEPVRPGMDDGAPSDESPTYVSAKASRYEQEKQIATLAGDVVLRQGSMQVEGDEANLHQLENRGELVGNVKLRDKGMLVVGDHAQVQLDNGEAQVDNAEYVIHKAHARGSALYAKRSENAIIMLKDGTYTRCEPSSNAWTLKGNNVKLNPATGFGTATNATLRVKDFPVFYTPYIYFPIDDRRQSGFLPPSFSSTSDTGFTLVTPYYFNLAPNYDATLYPRYMAKRGMMLEGEFRYLTHSSEGIVNAAYLNDKDDHREGFPDYSKDRWLYGLKNTTGLDSRWLAEVDYTRISDPYYFQDLDTDLGVGSTTYVNQRGTLTYRGDTFTGRLNAQAYQLATTTDVTPYDRLPQITFDGFLPYNPGGMQFTYGTEFVRFDRDLDENIYFNDDGSIRGKRPDASLQGLARATGDRMHLEPGMSLPMTRSWGYVTPTLKYLYTKYDLDLDSQGKTDLNKRDESFDSNQDRSLPLVKVDSGLYFDRDTTFAGTPFRQTLEPRAMYLYVPYKDQDSLPVFDTSEPSFSYDSLWRENRFTGKDRIGDANQLSLGVTSRFIEENGFERASISAGQIYYFRDRRVQLPGLTEKDLKRLNLDPSGLDNDSWRSPYAFAGQYRFNRDWRINSDFNWNPNTSRTESGSAIFHYQPEVDPGKVVNVGYRYRADARRFDSSRGTFRYGNENDIIKQHDFSVIWPLVPQWSVLARWQYDYNKNRTLEAFGGFEYDSCCWKLRLINRYWLDVDDDAFLVQSEKADRGIFLQIVLKGLGGIVGNKTEMFLDKGIQGYRQREEGHHHHHH | not soluble
MSLRYLLGIDVGTSGTKTALFDECGNTIKTSTHEYELFQPQVGWAEQNPENWWTACVKGIREVIEKSKIDPLDIKGIGISGQMHGLVLIDKEYKVIRNSIIWCDQRTEKECTQITDTIGKEKLIRITGNPALTGFTLSKLLWVRNNEPDNYKRIYKVLLPKDYIRFKLTGVFAAEVSDASGTQMLDINTRNWSEELLDDLRIDKNILPDVYESVVVSGCVIEKASKETKLAVNTPVVGGAGDQAAGAIGNGIVREGLISTVIGTSGVVFAATDTPRFDSKGRVHTLCHAVPNKWHIMGVTQGAGLSLNWFKRTFCAKEILESKEAGINIYDLLTEKASQSKPGSNGIIYLPYLMGERTPHIDPNVKGAFLGISLINNHNDFVRSILEGVGFSLKNCLDIIENMKVNIEEIRVSGGGAESSIWRQILSDIFNYELTTVKASEGPALGVAILAGVGAGIYNSVEEACDKIVKGNEKVMPNANLIEVYSKVYEVYNSAYPKIKDEGHHHHHH | soluble
MHMVTYPCLTSRRFQLALIHRRVVDKRTSMHSRTASESTGARIHRPWCARHQVRPAWRCQYDKLHRVPFRSPELRLDSGPGYTTGSYRYMAGDPLEHHHHHH | not soluble
MTQDRPLLAVQEALKKCFPVVEEQQGLWQSALRDCQPLLSSLSNLAEQLQAAQNLRFEDVPALRAFPDLKERLRQPSSSRCETWSAAMWSECFRSMSNTQTQLALMLSCSLQQ | soluble
QMEEGFVCFKLLYDVKKNRISIDDAVAENGVLPLMKHISWQFDKLPHMLIAGGTGGGKTYFMLTIIKACVGLGADVRILDPKNADLADLEEVLPKKVYSQKNGILMCLRKSVDGMMERMDEMKQMSNYKTGENYAYLGLKPVFIFFDEYVAFMDLLDMKERNEALSYMKQLVMLGRQAGYFLVLGAQRPDA | not soluble
